Results reported in patent publication US20070202552A1 (Genentech, published 2007).

What was measured:
[1] = target: human DR5 (construct not stated) (human) (UniProt O14763); test: specificity phage ELISA
human IGF-1 (human) = human IGF-1 (human) (UniProt P05019); test: specificity phage ELISA
human VEGF (human) = human VEGF (human) (UniProt P15692); test: specificity phage ELISA
human insulin (human) = human insulin (human) (UniProt P01308); test: specificity phage ELISA
neutravidin = neutravidin (UniProt P02701); test: specificity phage ELISA
[2] = target: T1, human HER-2 extracellular domain (HER-2 ECD) (human, UniProt P04626 23-646); test: Fab-phage binding affinity
T1 construct: range 23-646; also called erbB2; HER2 protein

[3] = target: T1, human HER-2 extracellular domain (HER-2 …); test: competitive Fab-phage ELISA
[4] = target: T1, human HER-2 extracellular domain (HER-2 …); test: competitive Fab-phage ELISA; remark: listed apart in the source
[5] = target: T1, human HER-2 extracellular domain (HER-2 …); test: SPR (BIAcore A100), HER2 amine-coupled to the chip, soluble Fab injected, 25 C

ELISA signal at 450 nm [1]	ELISA signal at 450 nm (human IGF-1 (human))	ELISA signal at 450 nm (human VEGF (human))	ELISA signal at 450 nm (human insulin (human))	ELISA signal at 450 nm (neutravidin)	IC50 [2] [nM]	IC50 [3] [nM]	IC50 [4] [nM]	Kd [5] [nM]	koff [5] [s⁻¹]	kon [5] [M⁻¹ s⁻¹]	Binder
0.21	0.32	0.23	0.45	0.32	0.31	0.31					Clone G37 (SX-surface), purified Fab (Fab, V domains shown) VH: EVQLVESGGGLVQPGGSLRLSCAASGFSIWWSWIHWVRQAPGKGLEWVASISPSSGWTSYADSVKGRFTISADTSKNTAYLQMNSLRAEDTAVYYCARWWSSAMDYWGQGTLVTVSS VL: DIQMTQSPSSLSASVGDRVTITCRASQDVNTAVAWYQQKPGKAPKLLIYSASSLYSGVPSRFSGSRSGTDFTLTISSLQPEDFATYYCQQWWWWPSTFGQGTKVEIK
					0.32		0.32	0.57	0.0015	2.7e+06	Clone YSGR-A-42, purified soluble Fab (Fab, V domains shown, also called clone 42 (YSGR-A); clone 42) VH: EVQLVESGGGLVQPGGSLRLSCAASGFYISSSSIHWVRQAPGKGLEWVAYIYPSSGYTSYADSVKGRFTISADTSKNTAYLQMNSLRAEDTAVYYCARGYYYSYYSGYALDYWGQGTLVTVSS VL: DIQMTQSPSSLSASVGDRVTITCRASQDVNTAVAWYQQKPGKAPKLLIYSASSLYSGVPSRFSGSRSGTDFTLTISSLQPEDFATYYCQQSYSSPSTFGQGTKVEIK
